Patent EP0599274A1

Biological target: HER4/p180erbB4 (human prototype HER4 polypeptide) (human)
Test: cell-based or functional assay

increase in tyrosine phosphorylation of HER4 after 15 minutes incubation: 2.4 to 4 fold
Substance: recombinant rat neu differentiation factor (NDF) (from UniProt P43322 14-241) (ligand)
